B1: Germ cell-less protein-like 1 (Homo sapiens), Q96IK5 (parent)
chain: MGSLSSRVLRQPRPALAQQAQGARAGGSARRPDTGDDAAGHGFCYCAGSHKRKRSSGSFCYCHPDSETDEDEEEGDEQQRLLNTPRRKKLKSTSKYIYQTLFLNGENSDIKICALGEEWSLHKIYLCQSGYFSSMFSGSWKESSMNIIELEIPDQNIDVEALQVAFGSLYRDDVLIKPSRVVAILAAACLLQLDGLIQQCGETMKETVNVKTVCGYYTSAGTYGLDSVKKKCLEWLLNNLMTHQNVELFKELSINVMKQLIGSSNLFVMQVEMDIYTALKKWMFLQLVPSWNGSLKQLLTETDVWFSKQRKDFEGMAFLETEQGKPFVSVFRHLRLQYIISDLASARIIEQDAVVPSEWLSSVYKQQWFAMLRAEQDSEVGPQEINKEELEGNSMRCGRKLAKDGEYCWRWTGFNFGFDLLVTYTNRYIIFKRNTLNQPCSGSVSLQPRRSIAFRLRLASFDSSGKLICSRTTGYQILTLEKDQEQVVMNLDSRLLIFPLYICCNFLYISPEKKN

How the values were obtained:
cul3_human CUL3, Q13618 = variants of: B1; conditions: with cul3_human CUL3, Q13618
FAM167A, Q96KS9 = variants of: B1; conditions: with FAM167A
FAM167A, Q96KS9, sequence (Q96KS9 whole entry): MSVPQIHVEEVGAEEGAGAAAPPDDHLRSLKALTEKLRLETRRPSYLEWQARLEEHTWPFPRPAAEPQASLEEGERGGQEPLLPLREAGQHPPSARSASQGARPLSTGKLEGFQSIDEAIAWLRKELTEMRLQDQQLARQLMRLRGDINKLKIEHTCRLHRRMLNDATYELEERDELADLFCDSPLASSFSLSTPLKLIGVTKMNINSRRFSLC

Variant | effect of a mutation on the interaction (cul3_human CUL3, Q13618) | effect of a mutation on the interaction (FAM167A, Q96KS9)
MGSLSSRVLRQPRPALAQQAQGARAGGSARRPDTGDDAAGHGFCYCAGSHKRKRSSGSFCYCHPDSETDEDEEEGDEQQRLLNTPRRKKLKSTSKYIYQTLFLNGENSDIKICALGEEWSLHRIYLCQSGYFSSMFSGSWKESSMNIIELEIPDQNIDVEALQVAFGSLYRDDVLIKPSRVVAILAAACLLQLDGLIQQCGETMKETVNVKTVCGYYTSAGTYGLDSVKKKCLEWLLNNLMTHQNVELFKELSINVMKQLIGSSNLFVMQVEMDIYTALKKWMFLQLVPSWNGSLKQLLTETDVWFSKQRKDFEGMAFLETEQGKPFVSVFRHLRLQYIISDLASARIIEQDAVVPSEWLSSVYKQQWFAMLRAEQDSEVGPQEINKEELEGNSMRCGRKLAKDGEYCWRWTGFNFGFDLLVTYTNRYIIFKRNTLNQPCSGSVSLQPRRSIAFRLRLASFDSSGKLICSRTTGYQILTLEKDQEQVVMNLDSRLLIFPLYICCNFLYISPEKKN [K123R] | with no effect | with no effect
MGSLSSRVLRQPRPALAQQAQGARAGGSARRPDTGDDAAGHGFCYCAGSHKRKRSSGSFCSCHPDSETDEDEEEGDEQQRLLNTPRRKKLKSTSKYIYQTLFLNGENSDIKICALGEEWSLHKIYLCQSGYFSSMFSGSWKESSMNIIELEIPDQNIDVEALQVAFGSLYRDDVLIKPSRVVAILAAACLLQLDGLIQQCGETMKETVNVKTVCGYYTSAGTYGLDSVKKKCLEWLLNNLMTHQNVELFKELSINVMKQLIGSSNLFVMQVEMDIYTALKKWMFLQLVPSWNGSLKQLLTETDVWFSKQRKDFEGMAFLETEQGKPFVSVFRHLRLQYIISDLASARIIEQDAVVPSEWLSSVYKQQWFAMLRAEQDSEVGPQEINKEELEGNSMRCGRKLAKDGEYCWRWTGFNFGFDLLVTYTNRYIIFKRNTLNQPCSGSVSLQPRRSIAFRLRLASFDSSGKLICSRTTGYQILTLEKDQEQVVMNLDSRLLIFPLYICCNFLYISPEKKN [Y61S] | with no effect | with no effect
MGSLSSRVLRQPRPALAQQAQGARAGGSARRPDTGDDAAGHGFCYCAGSHKRKRSSGSFCYCHPDSETDEDEEEGDKQQRLLNTPRRKKLKSTSKYIYQTLFLNGENSDIKICALGEEWSLHKIYLCQSGYFSSMFSGSWKESSMNIIELEIPDQNIDVEALQVAFGSLYRDDVLIKPSRVVAILAAACLLQLDGLIQQCGETMKETVNVKTVCGYYTSAGTYGLDSVKKKCLEWLLNNLMTHQNVELFKELSINVMKQLIGSSNLFVMQVEMDIYTALKKWMFLQLVPSWNGSLKQLLTETDVWFSKQRKDFEGMAFLETEQGKPFVSVFRHLRLQYIISDLASARIIEQDAVVPSEWLSSVYKQQWFAMLRAEQDSEVGPQEINKEELEGNSMRCGRKLAKDGEYCWRWTGFNFGFDLLVTYTNRYIIFKRNTLNQPCSGSVSLQPRRSIAFRLRLASFDSSGKLICSRTTGYQILTLEKDQEQVVMNLDSRLLIFPLYICCNFLYISPEKKN [E77K] | with no effect | with no effect

Other lines, results leading:

effect of a mutation on the interaction (cul3_human CUL3, Q13618) | effect of a mutation on the interaction (FAM167A, Q96KS9) | Variant
with no effect | with no effect | MGSLSSRVLRQPRPALAQQAQGARAGGSARRPDTGDDAAGHGFCYCAGSHKRKRSSGSFCYCHPDSETDEDEEEGDEQQRLLNTPRRKKLKSTSKYIYQTLFLNGENSDIKICALGEEWSLHKIYLCQSGYFSSMFSGSWKESSMNIIELEIPDQNIDVEALQVAFGSLYRDDVLIKPSRVVAILAAACLLQLDGLIQQCGETMKETVNVKTVCGYYTSAGTYGLDSVKKKCLEWLLNNLMTHQNVELFKELSINVMKQLIGSSNLFVMQVEMDIYTALKKWMFLQLVPSWNGSLKQLLTETDVWFSKQRKDFEGMAFLETEQGKPFVSVFRHLRLQYIVSDLASARIIEQDAVVPSEWLSSVYKQQWFAMLRAEQDSEVGPQEINKEELEGNSMRCGRKLAKDGEYCWRWTGFNFGFDLLVTYTNRYIIFKRNTLNQPCSGSVSLQPRRSIAFRLRLASFDSSGKLICSRTTGYQILTLEKDQEQVVMNLDSRLLIFPLYICCNFLYISPEKKN [I340V]
with no effect | with no effect | MGSLSSRVLRQPRPALAQQAQGARAGGSARRPDTGDDAAGHGFCYCAGSHKRKRSSGSFCYCHPDSETDEDEEEGDEQQRLLNTPRRKKLKSTSKYIYQTLFLNGENSDIKICALGEEWSLHKIYLCQSGYFSSMFSGSWKESSMNVIELEIPDQNIDVEALQVAFGSLYRDDVLIKPSRVVAILAAACLLQLDGLIQQCGETMKETVNVKTVCGYYTSAGTYGLDSVKKKCLEWLLNNLMTHQNVELFKELSINVMKQLIGSSNLFVMQVEMDIYTALKKWMFLQLVPSWNGSLKQLLTETDVWFSKQRKDFEGMAFLETEQGKPFVSVFRHLRLQYIISDLASARIIEQDAVVPSEWLSSVYKQQWFAMLRAEQDSEVGPQEINKEELEGNSMRCGRKLAKDGEYCWRWTGFNFGFDLLVTYTNRYIIFKRNTLNQPCSGSVSLQPRRSIAFRLRLASFDSSGKLICSRTTGYQILTLEKDQEQVVMNLDSRLLIFPLYICCNFLYISPEKKN [I147V]
with no effect | disrupting interaction strength | MGSLSSRVLRQPRPALAQQAQGARAGGSARRPDTGDDAAGHGFCYCAGSHKRKRSSGSFCYCHPDSETDEDEEEGDEQQRLLNTPRRKKLKSTSKYIYQTLFLNGENSDIKICALGEEWSLHKIYLCQSGYFSSMFSGSWKESSMNIIELEIPDQNIDVEALQVAFGSLYRDDVLIKPSRVVAILAAACLLQLDGLIQQCGETMKETVNVKTVCGYYTSAGTYGLDSVKKKCLEWLLNNLMTHQNVELFKELSINVMKQLIGSSNLFVMQVEMDIYTALKQWMFLQLVPSWNGSLKQLLTETDVWFSKQRKDFEGMAFLETEQGKPFVSVFRHLRLQYIISDLASARIIEQDAVVPSEWLSSVYKQQWFAMLRAEQDSEVGPQEINKEELEGNSMRCGRKLAKDGEYCWRWTGFNFGFDLLVTYTNRYIIFKRNTLNQPCSGSVSLQPRRSIAFRLRLASFDSSGKLICSRTTGYQILTLEKDQEQVVMNLDSRLLIFPLYICCNFLYISPEKKN [K281Q]
